The record followed here is the RNAGym collection of RNA variant scans (doi:10.7554/elife.80360).

First the molecules themselves.
B1: HDV Ribozyme (parent)
chain: GGCCGGCAUGGUCCCAGCCUCCUCGCUGGCGCCGGCUGGGCAACAUUCCGAGGGGACCGUCCCCUCGGUAAUGGCGAAUGGGACCCA

The variants in the data set derive from B1. As to the kind of experiment: self-cleavage, relative activity (ratio to wild type); higher = more cleavage; co-transcriptional.
As for U23C C33U, the self-cleavage was determined as 0.697. Under C3G C57A stands 0.802; under C33G A77C, 0.115; under G81U A87U, 0.455.

On to G11U C24G, for which the self-cleavage turned out to be 0.0966. With C30G U60A, the self-cleavage stood at 0.154. Under G52A U69A stands 1.05; under A78C G81U, 0.128. For A78C G81C, the self-cleavage is 0.0665. Under U12A U27A stands 0.791. As for G31U G74C, the self-cleavage was 0.223. Next, G17C G31C: 0.0475; G55C G80C: 0.388; G29A G74C: 0.0831. Next, C24U G35U: 0.131; U37G C49G: 0.196; U37G A45U: 0. Turning to C3G U37C, the self-cleavage was determined as 1.08. Under U9C G50A stands 0.877. Under A16C U65C stands 0.256.

On to U23C G53A, for which the self-cleavage worked out at 0.849. Next, U12C C86A: 0.864; C13A G17A: 0.0639; C18A C61U: 0.237. As to C63G U69C, the self-cleavage stood at 0.567. Consider G2A U20G, for which the self-cleavage stood at 0. Under C22A C48G stands 0.363.

On to C4U C84U, for which the self-cleavage came out at 0.514. Take C49U C86U: the self-cleavage was found to be 0.882.

With C44U G76A, the self-cleavage is 0.87. Take U27G C64U: the self-cleavage was 0.72.

As for A8C C57U, the self-cleavage turned out to be 0.895. G29C U47A: the self-cleavage was 0.214.

With C48A C62A, the self-cleavage turned out to be 0.878.

G1A C36U: the self-cleavage amounted to 0.244. Take G11C G29U: the self-cleavage worked out at 0.0225.

For the variant C58U G74U, the self-cleavage came to 0.51. G29U C57U: the self-cleavage came out at 0.0911. Under G5U U37A stands 0.0723; under C19A G28U, 0.79; under G6U G29C, 0.119. As to U72G A87G, the self-cleavage turned out to be 0.546. With C49U C57A, the self-cleavage stood at 1.07.

Regarding G1C A8G, the self-cleavage was 0.123.

C48A C66U: the self-cleavage amounted to 0.988. Next, C3G C61A: 0.87; G6C C14G: 0.111; G17A G28C: 0.0489.

For the variant U27C U46A, the self-cleavage came out at 0.529.

Take U23C A70U: the self-cleavage was found to be 0.917. Next, C7G G82U: 0; C21G G55A: 0.0941; C24G G40U: 0.17. Next, G6A U27G: 0.643. A8G C21A: the self-cleavage came to 0.0415.

For G17U A78G, the self-cleavage came to 0.201. Under U23G U46G stands 0.356; under U20A U27C, 0. Next, A8C G31C: 0.119. Regarding C14A G40C, the self-cleavage amounted to 0.185. Under G11A C61U stands 0.529; under C24U A78C, 0.196. U20C U72C: the self-cleavage was found to be 0.0755. Under C41U U79A stands 0.98; under C22G U60C, 0.0332; under U27A A70G, 0.987.

With A43G G73C, the self-cleavage turned out to be 0.256.

With G55C C63A, the self-cleavage was found to be 1.06. Consider C19G C75U, for which the self-cleavage was found to be 0.161.

A56G U72C: the self-cleavage came to 0.782. Under C85G C86G stands 0.905; under C18U G67U, 0.665; under C7A A87U, 0.505. Next, U69C A78G: 0.831. Take U23G U27G: the self-cleavage came to 0.529. Under A16U C33G stands 0.166; under C19U A42G, 0.

Take C21A G74U: the self-cleavage was 0.0712. Next, C21A G74C: 0.126; A43U U72C: 0.155; C3A U12G: 0.241. G10U G68A: the self-cleavage is 0.584.

Take C26U C64U: the self-cleavage is 0.819. Next, C33A G34C: 0.108; G50C A56G: 0.734. Under G29C G76A stands 0.0545; under C33G G80A, 0.0631; under G11U U12A, 0.116. On to U37A G52C, for which the self-cleavage amounted to 0.213. Next, C62U G67U: 1.02.

As for G35A G59C, the self-cleavage came out at 0.61. Next, C49U U69A: 0.95; U60A A87C: 1. Regarding C36G C63G, the self-cleavage is 0.212.

As to A42G U79C, the self-cleavage was 0.0386. For the variant C19U C86G, the self-cleavage was determined as 0.116. Turning to C19U C86A, the self-cleavage was found to be 0.194. For the variant G17U C48A, the self-cleavage was determined as 0.538. Under C14G A83U stands 0.289. Consider C4U G28C, for which the self-cleavage stood at 0.

On to C3G U23C, for which the self-cleavage was 0.48.

Regarding U60G G67U, the self-cleavage came to 1.07.

Regarding C41A G53U, the self-cleavage came to 0.969.

Consider C30A C84G, for which the self-cleavage was 0. For the variant G17C C32G, the self-cleavage came out at 0. Next, A51G C86G: 0.702. Regarding G5U C15A, the self-cleavage stood at 0.0831.

For the variant C7A C22U, the self-cleavage turned out to be 0. Under C3A G6A stands 0.0931; under A42C C44G, 0.217. On to C32U C62G, for which the self-cleavage is 0.727.

As for C4U G35A, the self-cleavage is 0.173. Next, C32U C86A: 0.69. For G5C C18U, the self-cleavage turned out to be 0.142. For C21A C61G, the self-cleavage was 0.0997. Under G35U C61G stands 0.286; under U20G G53A, 0.148; under G2U G52U, 0.055. On to G34A U72A, for which the self-cleavage worked out at 0.17. Take G11C A78G: the self-cleavage was found to be 0.229. On to G68A G76U, for which the self-cleavage is 1.14. Regarding C63U A71G, the self-cleavage amounted to 1.03.

As to C26G C36A, the self-cleavage came to 0.151.

As for C7G C24U, the self-cleavage came to 0.0692. Take C3A G28U: the self-cleavage turned out to be 0.0536. For C13G G82A, the self-cleavage turned out to be 0.0519. Under G35C G50C stands 0.0923; under G29U G54A, 0.189; under G38U C58U, 0.295.

Take G40U A71C: the self-cleavage came out at 0.327. Under G35U G74U stands 0.182; under U60C A71G, 0.886. Next, C7U A42C: 0.18; A70G A87G: 1.01; U65C C85U: 0.997. Under C66U A70C stands 0.712.

G29A A83C: the self-cleavage was 0.148. Under A56G G67A stands 1.09; under C57G U72G, 0.733. Next, A45G C66U: 0.92; C41A G52U: 0.772. Turning to C49U G55A, the self-cleavage is 0.866. Under U46G G73C stands 0.499. Under G1A G28C stands 0.219. Next, G54U C63U: 0.892. In the case of G35C A83C, the self-cleavage was 0.162. For the variant G39U G76U, the self-cleavage stood at 0.819. Turning to G38A G54C, the self-cleavage turned out to be 0.237. Next, C13U G68U: 0.614; G2C C49G: 0.145; A51G U65C: 1.26. As to U37A G53C, the self-cleavage is 0.162. On to C64A G80C, for which the self-cleavage was determined as 0.125. Under C4G G50C stands 0.237; under G31C C48A, 0.449. On to U69G A78G, for which the self-cleavage turned out to be 0.569. For the variant G10C G40U, the self-cleavage was determined as 0.776. Under A45U C61G stands 0.815.

Turning to G28A C32U, the self-cleavage amounted to 0.0845. On to A56U C66A, for which the self-cleavage came out at 1.03. Turning to G10C C64G, the self-cleavage is 0.997. Next, C75U C85U: 0.138.

Regarding G35A G74U, the self-cleavage was determined as 0.231. Turning to C15A C49G, the self-cleavage amounted to 0.166. For the variant G5C A8U, the self-cleavage came to 0.0665. Under C62A C63A stands 1.03; under U47G C63U, 1.27.
